Test results: US20190225691A1 (SHANGHAI HENLIUS BIOTECH, published 2019)
Numbering of substitutions follows the chain as printed. In names and notes the source's numbering stands. Values belong to the binder of their own block, whether it stands above or below them.

What was measured:
[1] = biological target: T1, human PD-L1 ECD-His (human, UniProt Q9NZQ7 19-238); assay: SPR, hPD-L1-His, PL3 variants
T1 construct: extracellular domain; Analyte in all SPR and BLI runs; also called hPD-L1_ECD-His; hPD-L1 ECD-His; not shown: His tag
T1 sequence (Q9NZQ7 19-238): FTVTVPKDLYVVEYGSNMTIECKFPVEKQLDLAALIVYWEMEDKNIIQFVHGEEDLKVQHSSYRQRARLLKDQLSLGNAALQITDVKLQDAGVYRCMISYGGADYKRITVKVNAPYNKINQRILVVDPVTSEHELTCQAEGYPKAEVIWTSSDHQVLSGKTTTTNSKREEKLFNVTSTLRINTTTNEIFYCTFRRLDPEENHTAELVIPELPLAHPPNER

[2] = biological target: T1, human PD-L1 ECD-His; assay: SPR, ratio of KD to ref-1
[3] = biological target: T1, human PD-L1 ECD-His; assay: SPR, 25 C, antibody captured by anti-human IgG Fc, hPD-L1_ECD-His analyte, 1:1 fit
Experimental: Experiments were carried out at 25° C., and measurements were made with serial dilutions of hPD-L1_ECD-His from 55.4 nM to 11.1 nM passing over the captured antibodies in HBS-P+ buffer supplemented with 0.1% (w/v) BSA with a flow rate of […]. All data were analyzed with the evaluation software and curves were fit with a 1:1 Langmuir binding model. Data are representative of two independent experiments performed in duplicate.

[4] = biological target: T2, human PD-L1 on cells (PHA-activated human T cells); PD-L1-transfected CHO-S cells; A375 melanoma cells; … (human, UniProt Q9NZQ7 19-290); assay: flow cytometry blocking assay: PD-L1 expressing CHO-S cells incubated with antibody, then biotin-labeled PD-1-Fc and streptavidin-PE; MFI of bound PD-1
T2 construct: whole, on cells; also called PD-L1 expressing T cells; PD-L1 expressing CHO-S cells
T2 sequence (Q9NZQ7 19-290): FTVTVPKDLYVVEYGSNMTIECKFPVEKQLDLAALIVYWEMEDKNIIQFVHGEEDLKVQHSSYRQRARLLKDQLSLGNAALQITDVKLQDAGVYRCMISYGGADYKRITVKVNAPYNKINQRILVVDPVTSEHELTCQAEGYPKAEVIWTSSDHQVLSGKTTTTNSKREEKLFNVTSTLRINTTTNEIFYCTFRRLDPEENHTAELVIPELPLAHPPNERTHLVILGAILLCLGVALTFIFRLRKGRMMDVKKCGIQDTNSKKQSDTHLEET
Experimental: PD-L1 expressing CHO-S cells were suspended in FACS buffer (PBS with 4% FBS). Various concentrations of tested antibodies were added to the cell suspension (3.5E5 cells/well) and incubated at 4° C. for 30 minutes. […] The cells were washed and then stained with streptavidin-PE at 4° C. for 30 minutes. Flow cytometric analyses were performed using the Cytomics FC 500 (Beckman Coulter Inc.).
Anti-PD-L1 reference antibody and Avastin were used as the positive and negative control, respectively.

[5] = biological target: T2, human PD-L1 on cells (PHA-activated …); assay: flow cytometry on PHA-activated human CD3+ T cells, FITC-labeled anti-human IgG Fcγ, MFI
Experimental: Human T cells were isolated from PBMC using MagniSortTM Human T Cell Enrichment Kit (eBioscience). Isolated T cells were activated by 5 μg/mL phytohemagglutinin (PHA) for 3 days to stimulate the PD-L1 expression. Activated T cells were collected and incubated in FACS buffer (PBS with 2% FBS) with human Fc blocker (eBioscience) for 20 minutes at 4° C. Binding of anti-PD-L1 monoclonal antibody was assessed by incubating the activated T cells with the serial-diluted antibodies in FACS buffer. The cells were washed with flow buffer and the binding was detected with a FITC-labeled rabbit anti-human IgG FcγAb. Cells were also stained with mouse anti-human CD3 PE-Cy7 (eBioscience) for gating CD3-positive T cells. Flow cytometric analyses were performed using the Cytomics FC 500 (Beckman Coulter Inc.).

B3: PL15 (full-length, N297A mutant human IgG1) (antibody, V domains shown)
VH: QVQLVQSGAEVKKPGSSVKVSCKASGGTFSSYTISWVRQAPGQGLEWMGRIIPILGIANYAQKFQGRVTITADKSTSTAYMELSSLRSEDTAVYYCARSRDGYSFGAFDIWGQGTLVTVSS
VL: QSVLTQPPSVSGAPGQRVTISCTGYSSNIGAGYDVHWYQHLPGTAPKLLIYGNSNRPSGVPDRFSGSKSGTSASLAITGLQAEDEADYYCQSYDNSLSVSVFGGGTKLTVLG
- Kd [3]: 15 nM
- koff [3]: 0.00933 s⁻¹
- kon [3]: 645000 M⁻¹ s⁻¹
- IC50 (read off the curve) [4]: ~0.06 µg/mL
- EC50 (read off the curve) [5]: ~0.03 µg/mL

B4: PL3#7 IgG1 (antibody, V domains shown)
VH: B3 VH with T33P, M48I, S104A
VL: QSVVTQPPPVSGAPGQRVTISCTGSSSNIGAGYDVHWYQQLPGTAPKLLIYGNSNRPSGVPDRFSGSKSGTSASLAITGLQAEDEADYYCQTYDSSLSARVVFGGGTKLTVL
notes: Human IgG1
- Kd [1]: 0.457 nM
- koff [1]: 0.000444 s⁻¹
- kon [1]: 997000 M⁻¹ s⁻¹
- Improvement over ref-1 [2]: 1.38 fold

B5: PL3 IgG2 (antibody, V domains shown)
VH: B3 VH
VL: B4 VL with T92S, R100P
notes: Human IgG2
- Kd [1]: 6.64 nM
- koff [1]: 0.00277 s⁻¹
- kon [1]: 417000 M⁻¹ s⁻¹
- Improvement over ref-1 [2]: 0.1 fold

More lines, now with the values ahead:

- Kd [1]: 0.349 nM
- koff [1]: 0.000327 s⁻¹
- kon [1]: 995000 M⁻¹ s⁻¹
- Improvement over ref-1 [2]: 1.81 fold
B1: PL3#7 IgG2 (antibody, V domains shown)
VH: B3 VH with T33P, M48I, S104A
VL: B4 VL
notes: Human IgG2

- Kd [1]: 0.321 nM
- koff [1]: 0.000362 s⁻¹
- kon [1]: 1.14e+06 M⁻¹ s⁻¹
- Improvement over ref-1 [2]: 1.97 fold
B2: PL3#7 IgG4 (antibody, V domains shown)
VH: B3 VH with T33P, M48I, S104A
VL: B4 VL
notes: Human IgG4

- Kd [1]: 5.46 nM
- koff [1]: 0.00291 s⁻¹
- kon [1]: 542000 M⁻¹ s⁻¹
- Improvement over ref-1 [2]: 0.12 fold
B6: PL3 IgG1 (antibody, V domains shown)
VH: B3 VH
VL: B4 VL with T92S, R100P

- Kd [1]: 0.366 nM
- koff [1]: 0.000395 s⁻¹
- kon [1]: 1.1e+06 M⁻¹ s⁻¹
- Improvement over ref-1 [2]: 1.73 fold
B7: PL3#1 mtIgG1 (N297A) (antibody, V domains shown)
VH: B3 VH with T33R, F105V, I110S
VL: B4 VL with N55R, A99R, R100P
notes: N297A mutant human IgG1

- Kd [1]: 0.74 nM
- koff [1]: 0.00067 s⁻¹
- kon [1]: 931000 M⁻¹ s⁻¹
- Improvement over ref-1 [2]: 0.85 fold
B8: PL3#1 IgG2 (antibody, V domains shown)
VH: B3 VH with T33R, F105V, I110S
VL: B4 VL with N55R, A99R, R100P
notes: Human IgG2
